B1: Neutrophil cytosol factor 2, residues 456 to 514; numbered along this chain, P19878 (parent)
chain: LKKGSQVEALFSYEATQPEDLEFQEGDIILVLSKVNEEWLEGECKGKVGIFPKVFVEDC

Variants of: B1
Experiment: abundance fitness (aPCA) (normalised: wild type 0, dead -1); higher = more abundant; growth selection in yeast, the domain comes from the species named
Details: Homo sapiens

Abundance fitness: each site, then its substitutions
I29: W 0.005, M -0.686, D -0.41, N -0.119, S -0.374, Q -0.783, G -0.365, R -0.427, E -0.392, V -0.795, T -0.497, H -0.595, C -0.497, P 0.271, L -0.454, A -0.53
D27: L -0.28, Y -0.613, H -0.488, C -0.301, K -0.365, R -0.323, W -0.674, S -0.666, I -0.179, M -0.377, Q -0.212, F -0.493, P -0.783, E -0.933, V -0.969, T -0.695, A -0.142
G26: D -0.683, T -0.881, N -0.517, L -0.339, M -0.103, H -0.398, V -0.407, K 0.016, R -0.464, E -0.473, S -0.457, Y -1.03, I -0.807, W -0.809
E25: S -0.239, P -0.89, V -0.043, M -0.264, K 0.711, H 0.447, D -0.9, I -0.68, L -0.731, C -0.275, N -0.015, G -0.201, T 0.035, W -0.78
L21: N -0.538, V -0.225, Y -0.721, S -0.522, W -0.457, I -0.184, R -0.67, T -0.392, M -0.509, P -0.529
Q24: V -0.279, K 0.047, C -0.197, L -0.535, Y -0.44, R -0.234, M -0.311, G -0.805, N -0.002, S 0.286, T -0.257, H -0.035, D 0.235, P -0.727, F -0.224, W -0.14, A -0.186, I -0.688
V31: I 0.342, G 0.001, L 0.041, H -0.369, K -0.621, F -0.354, C -0.418
E22: Y -0.565, K -0.473, A 0.103, N -0.654, S 0.284, T -0.24, H -0.191, L -0.256, D -0.602, I -0.795, R -0.368, W -0.787, F -0.55, V -0.389, Q 0.395, P -0.225, C -0.627
I28: K 0.638, V -0.264, M -0.065, N 0.043, T 0.163, L -0.284, H 0.116, Y -0.546, S 0.096, A -0.179, D 0.056, G -0.245, F -0.443, R 0.338, C -0.546, Q 0.146, P 0.054, W 0.025
L30: R 0.552, S 0.469, K 0.491, G -0.2, N 0.756, T 1.05, E 0.042, D 0.169, H 0.448, F -0.147, V -0.07, A -0.284, P 0.04, W -0.513, I 0.032, M 0.08, Y 0.079, Q 0.5
F23: E -0.023, A -0.333, T -0.772, C -0.218, N -0.381, H -0.117, R -0.223, D -0.527, M -0.098, K -0.048, W -0.889, P -0.848, I -0.374, G -0.198, Q 0.047, S -0.655, V -0.568, Y -0.517

— the Human Domainome abundance scans (Beltran et al. 2025)
